{"source": "patent US20210269521A1", "about": "(L AND L BIOPHARMA, published 2021)", "key": {"[1]": {"target": "T1, human PD-1 extracellular domain protein expressed in Example 1 (tag not stated) (human, UniProt Q15116 25-170)", "T1 construct": "extracellular domain; also called PD-1 protein; not shown: human IgG1 Fc or his tag", "test": "ELISA; 15 mg/mL in PBS, 37°C 0 day (-80°C)"}, "[2]": {"target": "T2, human TIM-3 extracellular domain-human IgG1 Fc fusion protein (human, UniProt Q8TDQ0 22-199)", "T2 construct": "Made in house or bought (ACROBiosystems TM3-H5258); also called TIM-3-hFc; not shown: human IgG1 Fc", "test": "ELISA; 15 mg/mL in PBS, 37°C 0 day (-80°C)"}, "[3]": {"target": "T1, human PD-1 extracellular domain protein …", "test": "double-sandwich ELISA: PD-1 coated, LB141 titrated, detected with Bio-TIM-3-his and streptavidin-HRP", "description": "After discarding the liquid, 200 μl/well of blocking solution of 5% skimmed milk (Sangon Biotech (Shanghai) Co., Ltd., A600669-0250) diluted with PBS was added, and the microplate was placed at 4° C. overnight (16-18 hours) for blocking. After discarding the blocking solution, the microplate was washed 5 times with PBST buffer (pH 7.4 PBS containing 0.05% tween-20). […] Followed by washing the plate 5 times with PBST, 50 μl/well of 1 μg/ml Bio-TIM-3-his (ACROBiosystems, TM-H5229) was added and incubated at 37° C. for 1 hour. Then the microplate was washed 5 times with PBST again, and 50 μl/well 1:1000 diluted streptavidin-HRP secondary antibody (Nanjing Genscript Biotech Corporation, M00091) was added and incubated at 37° C. for 1 hour. After washing the microplate 5 times with PBST, 50 μDwell TMB chromogenic substrate (KPL, 52-00-03) was added and incubated at room temperature for 5-10 min."}, "[4]": {"target": "T1, human PD-1 extracellular domain protein …", "test": "ELISA; pH 5.5, 37°C 5 days"}, "[5]": {"target": "T2, human TIM-3 extracellular domain-human …", "test": "ELISA; pH 5.5, 37°C 5 days"}}, "data": [{"binder": "bispecific antibody LB141 (bispecific antibody, human IgG4 S228P, kappa, ab6VL-(G4S)3-ab6VH-(G4S)3-PemVH-hIgG4 with PemVL-κ) light: EIVLTQSPATLSLSPGERATLSCRASKGVSTSGYSYLHWYQQKPGQAPRLLIYLASYLESGVPARFSGSGSGTDFTLTISSLEPEDFAVYYCQHSRDLPLTFGGGTKVEIKRTVAAPSVFIFPPSDEQLKSGTASVVCLLNNFYPREAKVQWKVDNALQSGNSQESVTEQDSKDSTYSLSSTLTLSKADYEKHKVYACEVTHQGLSSPVTKSFNRGEC heavy: not shown", "values": [{"measurement": "EC50", "setting": "[1]", "result": 0.293, "unit": "nM"}, {"measurement": "EC50", "setting": "[2]", "result": 0.253, "unit": "nM"}, {"measurement": "EC50", "setting": "[3]", "result": 0.816, "unit": "nM"}, {"measurement": "EC50", "setting": "[4]", "result": 0.217, "unit": "nM"}, {"measurement": "EC50", "setting": "[5]", "result": 0.334, "unit": "nM"}]}]}
